Laboratory results as given in patent US20200317768A1 (published 2020).

T1: human FcγRIIaR extracellular domain, C-terminal His-tag (human, UniProt P12318 34-217)
T1 construct: also called human FcγRIIa (type R); FcgRIIaR
T1 chain: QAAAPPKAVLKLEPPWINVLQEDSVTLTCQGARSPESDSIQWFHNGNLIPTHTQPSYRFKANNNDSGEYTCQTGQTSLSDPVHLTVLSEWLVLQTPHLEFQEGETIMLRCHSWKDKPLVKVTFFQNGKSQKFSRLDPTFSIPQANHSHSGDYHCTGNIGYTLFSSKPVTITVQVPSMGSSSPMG

T2: cynomolgus monkey FcγRIIa3 extracellular domain, C-terminal His-tag (cynomolgus monkey)
T2 construct: also called cyno FcγRIIa3; cynoFcgRIIa3
T2 chain: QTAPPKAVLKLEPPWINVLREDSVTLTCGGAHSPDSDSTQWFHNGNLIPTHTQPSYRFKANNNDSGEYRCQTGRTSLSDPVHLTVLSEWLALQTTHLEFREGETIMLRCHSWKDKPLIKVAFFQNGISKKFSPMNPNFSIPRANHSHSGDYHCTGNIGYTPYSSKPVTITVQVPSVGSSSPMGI

T3: cynomolgus monkey FcγRIIb extracellular domain, C-terminal His-tag (cynomolgus monkey)
T3 construct: also called cyno FcγRIIb; cynoFcγRIIb
T3 chain: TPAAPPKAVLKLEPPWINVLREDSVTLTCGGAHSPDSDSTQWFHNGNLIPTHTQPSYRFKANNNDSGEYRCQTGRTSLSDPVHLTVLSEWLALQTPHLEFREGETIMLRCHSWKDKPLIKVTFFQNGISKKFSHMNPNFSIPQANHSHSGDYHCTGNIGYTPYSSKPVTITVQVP

T4: cynomolgus monkey FcγRIIIaS extracellular domain, C-terminal His-tag (cynomolgus monkey, UniProt Q8SPW2 21-206 at identity 1.00))
T4 construct: also called cyno FcγRIIIaS; cynoFcγRIIIaS
T4 chain: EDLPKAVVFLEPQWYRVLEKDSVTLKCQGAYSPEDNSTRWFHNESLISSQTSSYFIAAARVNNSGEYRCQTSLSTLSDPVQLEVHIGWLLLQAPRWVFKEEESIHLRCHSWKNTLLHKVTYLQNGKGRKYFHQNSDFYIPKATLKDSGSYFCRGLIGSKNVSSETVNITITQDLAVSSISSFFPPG

T5: human FcγRIIaH extracellular domain, C-terminal His-tag (human, UniProt P12318 34-217)
T5 construct: also called human FcγRIIa (type H); FcgRIIaH
T5 sequence: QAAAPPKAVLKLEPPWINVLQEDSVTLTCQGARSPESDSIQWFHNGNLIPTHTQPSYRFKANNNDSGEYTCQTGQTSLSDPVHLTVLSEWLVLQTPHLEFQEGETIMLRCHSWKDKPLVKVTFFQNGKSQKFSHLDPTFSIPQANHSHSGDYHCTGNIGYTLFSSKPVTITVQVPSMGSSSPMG

T6: cynomolgus monkey FcγRIIa1 extracellular domain, C-terminal His-tag (cynomolgus monkey)
T6 construct: also called cyno FcγRIIa1; cynoFcgRIIa1
T6 chain: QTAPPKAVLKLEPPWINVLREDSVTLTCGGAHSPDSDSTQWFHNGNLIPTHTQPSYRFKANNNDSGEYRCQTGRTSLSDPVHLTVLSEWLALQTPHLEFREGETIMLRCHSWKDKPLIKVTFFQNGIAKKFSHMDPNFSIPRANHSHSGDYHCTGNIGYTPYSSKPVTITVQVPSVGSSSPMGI

T7: human FcγRIIb extracellular domain, C-terminal His-tag (human, UniProt P31994 43-217)
T7 construct: also called human FcgRIIb; FcgRIIb
T7 sequence: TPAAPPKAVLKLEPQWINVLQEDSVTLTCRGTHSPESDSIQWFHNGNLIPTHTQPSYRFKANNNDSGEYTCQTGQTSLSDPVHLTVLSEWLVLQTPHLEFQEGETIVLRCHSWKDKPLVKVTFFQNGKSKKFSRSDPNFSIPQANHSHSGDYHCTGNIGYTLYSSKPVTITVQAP

T8: cynomolgus monkey FcγRIIa2 extracellular domain, C-terminal His-tag (cynomolgus monkey)
T8 construct: also called cyno FcγRIIa2; cynoFcgRIIa2
T8 chain: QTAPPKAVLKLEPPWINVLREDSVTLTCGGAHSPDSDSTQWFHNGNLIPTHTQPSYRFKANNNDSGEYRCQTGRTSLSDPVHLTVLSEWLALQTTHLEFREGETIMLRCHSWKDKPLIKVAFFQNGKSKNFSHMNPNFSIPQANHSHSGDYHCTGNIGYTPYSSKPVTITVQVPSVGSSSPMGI


How the values were obtained:
Experiment in all cases: SPR (Biacore), antibody captured, FcgR analyte
[1] = biological target: T1, human FcγRIIaR extracellular domain, …
Description: (§1) The kinetic analysis of interactions between these antibodies and FcγR was carried out using BIACORE® T200 or BIACORE® 4000 (GE Healthcare). HBS-EP+ (GE Healthcare) was used as the running buffer, and the measurement temperature was set to 25° C. A chip produced by immobilizing Protein A. Protein A/G or mouse anti-human IgG kappa light chain (BD Biosciences) onto a Series S Sensor Chip CM4 or CM5 (GE Healthcare) by the amine-coupling method was used. […] After the measurement, the antibody captured on the chip was washed off by allowing reaction with 10 mM glycine-HCl, pH1.5 and 25 mM NaOH so that the chip was regenerated and used repeatedly. The sensorgrams obtained as measurement results were analyzed by the 1:1 Langmuir binding model using the BIACORE® Evaluation Software to calculate the binding rate constant ka (L/mol/s) and dissociation rate constant kd (l/s), and the dissociation constant KD (mol/L) was calculated from these values. […] Regarding such interactions, KD values were calculated using the following 1:1 binding model described in BIACORE® T100 Software Handbook BR1006-48 Edition AE.
(§2) The behavior of interacting molecules according to the 1:1 binding model on BIACORE® can be described by Equation 1: Req=C·R max/(KD+C)+RI, wherein, Req is a plot of steady-state binding levels to analyte concentration. C is concentration, RI is bulk refractive index contribution in the sample, and Rmax is analyte binding capacity of the surface. When this equation is rearranged, KD can be expressed as Equation 2: KD=C·Rmax/(Req−RI)−C. KD can be calculated by substituting the values of Rmax, RI, and C into Equation 1 or Equation 2. From the current measurement conditions, RI=0, C=2 μmol/L can be used.

[2] = biological target: T2, cynomolgus monkey FcγRIIa3 …
Description: as §1, §2

[3] = biological target: T3, cynomolgus monkey FcγRIIb extracellular …
Description: as §1, §2

[4] = biological target: T4, cynomolgus monkey FcγRIIIaS …
Description: as §1, §2

[5] = biological target: T5, human FcγRIIaH extracellular domain, …
Description: as §1, §2

[6] = biological target: T6, cynomolgus monkey FcγRIIa1 …
Description: as §1, §2

[7] = biological target: T9, human FcγRIIIaV extracellular domain, C-terminal His-tag (human, UniProt P08637 17-208)
T9 construct: also called human FcgRIIIaV; FcgRIIIaV
T9 sequence (P08637 17-208 F176V): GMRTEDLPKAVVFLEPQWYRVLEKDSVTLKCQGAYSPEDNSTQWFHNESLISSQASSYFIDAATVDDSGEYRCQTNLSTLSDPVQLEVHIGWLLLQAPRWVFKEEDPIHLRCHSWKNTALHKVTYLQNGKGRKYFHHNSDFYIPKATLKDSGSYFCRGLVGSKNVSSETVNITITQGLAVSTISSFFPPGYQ
Description: as §1, §2

[8] = biological target: T7, human FcγRIIb extracellular domain, …
Description: as §1, §2

[9] = biological target: T8, cynomolgus monkey FcγRIIa2 …
Description: as §1, §2

Kd [1] [nM] | Kd [2] [nM] | Kd [3] [nM] | Kd [4] [nM] | Kd [5] [nM] | Kd [6] [nM] | Kd [7] [nM] | Kd [8] [nM] | Kd [9] [nM] | Binder
800 | 1400 | 240 | 2700 | 580 | 440 | 8900 | 420 | 350 | M103205H795-MY198/M103202L889-SK1 (antibody, human IgG1, kappa, Substitutions introduced into M103205H795-SG1; expressed with M103202L889-SK1 as light chain) heavy: QVTLKESGPVLVKPTETLTLTCTVSGIDLSHDDISWVRQAPGKGLEWVGIISYAGSTYYASWAKGRLTISKDTSKNQVVLTMTNMDPVDTATYYCARGVPAYSHGGDLWGQGTLVTVSSASTKGPSVFPLAPSSKSTSGGTAALGCLVKDYFPEPVTVSWNSGALTSGVHTFPAVLQSSGLYSLSSVVTVPSSSLGTQTYICNVNHKPSNTKVDKKVEPKSCDKTHTCPPCPAPELLNGPVVFLFPPKPKDTLMISRTPEVTCVVVDVSDEDPEVKFNWYVDGVEVHNAKTKPREEQYNSTYRVVSVLTVLHQDWLNGKEYKCKVSNKALPKPIEKTISKAKGQPREPQVYTLPPSREEMTKNQVSLTCLVKGFYPSDIAVEWESNGQPENNYKTTPMVLDSDGSFFLYSKLTVDKSRWQQGNVFSCSVMHEALHNHYTQKSLSLSP light: DIVMTQSPATLSLSPGERATLSCTSSQSVYHANWLSWFQQKPGQPPKLLIYWASTLAYGVPSRFSGSGSGTDFTLTISSLQPEDAATYYCAGGYGGGRYAFGQGTKVEIKRTVAAPSVFIFPPSDEQLKSGTASVVCLLNNFYPREAKVQWKVDNALQSGNSQESVTEQDSKDSTYSLSSTLTLSKADYEKHKVYACEVTHQGLSSPVTKSFNRGEC
1900 | 39000 | 430 | 5700 | 910 | 14000 | 24000 | 1100 | 1400 | M103205H795-MY201/M103202L889-SK1 (antibody, human IgG1, kappa, also called MS1032LO06-MY201) heavy: QVTLKESGPVLVKPTETLTLTCTVSGIDLSHDDISWVRQAPGKGLEWVGIISYAGSTYYASWAKGRLTISKDTSKNQVVLTMTNMDPVDTATYYCARGVPAYSHGGDLWGQGTLVTVSSASTKGPSVFPLAPSSKSTSGGTAALGCLVKDYFPEPVTVSWNSGALTSGVHTFPAVLQSSGLYSLSSVVTVPSSSLGTQTYICNVNHKPSNTKVDKKVEPKSCDKTHTCPPCPAPELLNGPSVFLFPPKPKDTLMISRTPEVTCVVVDVSDEDPEVKFNWYVDGVEVHNAKTKPREEQYNSTYRVVSVLTVLHQDWLNGKEYKCKVSNKALPKPIEKTISKAKGQPREPQVYTLPPSREEMTKNQVSLTCLVKGFYPSDIAVEWESNGQPENNYKTTPPVLDSDGSFFLYSKLTVDKSRWQQGNVFSCSVMHEALHNHYTQKSLSLSP light: DIVMTQSPATLSLSPGERATLSCTSSQSVYHANWLSWFQQKPGQPPKLLIYWASTLAYGVPSRFSGSGSGTDFTLTISSLQPEDAATYYCAGGYGGGRYAFGQGTKVEIKRTVAAPSVFIFPPSDEQLKSGTASVVCLLNNFYPREAKVQWKVDNALQSGNSQESVTEQDSKDSTYSLSSTLTLSKADYEKHKVYACEVTHQGLSSPVTKSFNRGEC
27000 | 5000 | 1100 | 4400 | 1700 | 1700 | 15000 | 1400 | 1500 | M103205H795-MY200/M103202L889-SK1 (antibody, human IgG1, kappa, Substitutions introduced into M103205H795-SG1; expressed with M103202L889-SK1 as light chain) heavy: QVTLKESGPVLVKPTETLTLTCTVSGIDLSHDDISWVRQAPGKGLEWVGIISYAGSTYYASWAKGRLTISKDTSKNQVVLTMTNMDPVDTATYYCARGVPAYSHGGDLWGQGTLVTVSSASTKGPSVFPLAPSSKSTSGGTAALGCLVKDYFPEPVTVSWNSGALTSGVHTFPAVLQSSGLYSLSSVVTVPSSSLGTQTYICNVNHKPSNTKVDKKVEPKSCDKTHTCPPCPAPELLNGPVVFLFPPKPKDTLMISRTPEVTCVVVDVSEEDPEVKFNWYVDGVEVHNAKTKPREEQYNSTYRVVSVLTVLHQDWLNGKEYKCKVSNKALPKPIEKTISKAKGQPREPQVYTLPPSREEMTKNQVSLTCLVKGFYPSDIAVEWESNGQPENNYKTTPPVLDSDGSFFLYSKLTVDKSRWQQGNVFSCSVMHEALHNHYTQKSLSLSP light: DIVMTQSPATLSLSPGERATLSCTSSQSVYHANWLSWFQQKPGQPPKLLIYWASTLAYGVPSRFSGSGSGTDFTLTISSLQPEDAATYYCAGGYGGGRYAFGQGTKVEIKRTVAAPSVFIFPPSDEQLKSGTASVVCLLNNFYPREAKVQWKVDNALQSGNSQESVTEQDSKDSTYSLSSTLTLSKADYEKHKVYACEVTHQGLSSPVTKSFNRGEC
2800 | 12000 | 1100 | 4100 | 11000 | 19000 | 15000 | 1900 | 2000 | M103205H795-MY199/M103202L889-SK1 (antibody, human IgG1, kappa, Substitutions introduced into M103205H795-SG1; expressed with M103202L889-SK1 as light chain) heavy: QVTLKESGPVLVKPTETLTLTCTVSGIDLSHDDISWVRQAPGKGLEWVGIISYAGSTYYASWAKGRLTISKDTSKNQVVLTMTNMDPVDTATYYCARGVPAYSHGGDLWGQGTLVTVSSASTKGPSVFPLAPSSKSTSGGTAALGCLVKDYFPEPVTVSWNSGALTSGVHTFPAVLQSSGLYSLSSVVTVPSSSLGTQTYICNVNHKPSNTKVDKKVEPKSCDKTHTCPPCPAPELLNGPSVFLFPPKPKDTLMISRTPEVTCVVVDVSEEDPEVKFNWYVDGVEVHNAKTKPREEQYNSTYRVVSVLTVLHQDWLNGKEYKCKVSNKALPKPIEKTISKAKGQPREPQVYTLPPSREEMTKNQVSLTCLVKGFYPSDIAVEWESNGQPENNYKTTPPVLDSDGSFFLYSKLTVDKSRWQQGNVFSCSVMHEALHNHYTQKSLSLSP light: DIVMTQSPATLSLSPGERATLSCTSSQSVYHANWLSWFQQKPGQPPKLLIYWASTLAYGVPSRFSGSGSGTDFTLTISSLQPEDAATYYCAGGYGGGRYAFGQGTKVEIKRTVAAPSVFIFPPSDEQLKSGTASVVCLLNNFYPREAKVQWKVDNALQSGNSQESVTEQDSKDSTYSLSSTLTLSKADYEKHKVYACEVTHQGLSSPVTKSFNRGEC
